B1: TPR t1 (parent)
chain: GACCAAUCUGCCCUCAGAGCUCGAGAACAUCUUCGGAUGCAGAGGAGGCAGGCUUCGGUGGCGCGAUAGCGCCAACGUCCUCAACCUCCAAUGCAUCCCACCACAUGAUGAUGCCUGAAGAGCCUUGGUUUUUUG

In the data set the parent is B1. As to the kind of experiment: polymerase ribozyme fitness, log enrichment relative to wild type (log ratio); higher = more active; in vitro selection for triplet polymerase activity. The method, boiled down:
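Fitness compares each genotype's enrichment to that of the wild type on a logarithmic scale, averaging replicates with inverse-variance weights. The logarithm is base 2. Enrichment came from Illumina sequencing of input and output libraries after one triplicate round of in vitro selection, which included frozen incubation at −7 °C, of PCR-built, transcribed mutant libraries of each subunit of a heterodimeric triplet polymerase ribozyme. Only genotypes with ≥10 input reads and ≥1 read per output were kept.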
With C8A G48U U59G A105C U112C G120A, the “polymerase ribozyme fitness (log ratio)” value was -1.08.

C8G C20G G63A C124G: the “polymerase ribozyme fitness (log ratio)” value was -4.75. Next, C8A G47C U133G: -1.25. To C8A U112A G128U belongs 0.095; to C8G G52U C64U C73U U96G, -1.4; to C8G C22G G47A C70U G77U, -4.84. For C8G A46C U81A C88U G113A, the “polymerase ribozyme fitness (log ratio)” value was -1.64. In the case of C8G A91U A95C, the “polymerase ribozyme fitness (log ratio)” value was -1.32.

Turning to C8G G48U, the “polymerase ribozyme fitness (log ratio)” value is -0.882.

For the variant C8G G39A G117U U132A, the “polymerase ribozyme fitness (log ratio)” value came out at 0.363.

Take C8G C15U C89G G93A C101U G113C C114U G127C: the “polymerase ribozyme fitness (log ratio)” value was -3.86. Regarding C8G A121G, the “polymerase ribozyme fitness (log ratio)” value came to 1.62. To C8G G110C belongs -2.74; to C8G G63U G77C U129C, -2.81. Turning to C8G C56G, the “polymerase ribozyme fitness (log ratio)” value was 0.255. Next, C8G A74U: 0.0385; C8G G19U G48A A50U U54G U96A C114A: 0.218. To C8G C12U C97G belongs -3.16; to C8G G60U C102U, -0.641; to C8G C89A C114U, -0.406. Take C8G C12U U21G G39C: the “polymerase ribozyme fitness (log ratio)” value is -1.78.

In the case of C8G C12G A27U C64U, the “polymerase ribozyme fitness (log ratio)” value is -1.4. Next, C8G A43C G45A A50G G113U G120C: -2.24; C8G A46G A83G U126G G127A: -1.72.

Take C8G C12U A68G G122A C123U: the “polymerase ribozyme fitness (log ratio)” value is -1.28. As to C8G C73U A91G C101G, the “polymerase ribozyme fitness (log ratio)” value is -2.3. Next, C8A U32A A90G: -4.24; C8G G63U: -0.674; C8A G58C: 0.847. Next, C8G A91G C115U: -0.682; C8G C114U C123A: -0.55; C8G C114A: 0.0806. Next, C8A G71A C104A: -2.19. Consider C8G C86A A105C, for which the “polymerase ribozyme fitness (log ratio)” value is -1.39. To C8A U14G U55A C62U U78A A100C belongs -1.37; to C8G A16G C56G C72A A100C, -1.46; to C8A G48A C101G C115U, -4.25. Next, C8G G48U G60U C85U U92A: -3.06; C8G A37U C49U U54G U133G: -1.23. To C8G C31A A41U C73G U112A belongs -6.12. Take C8G A41C G63U C64U G113A A118G: the “polymerase ribozyme fitness (log ratio)” value is -7.5. To C8A U112C U125A belongs 1.71; to C8G G60A C104U, -0.296. To C8G A27G C64U C72U G93U C104A A111U U125C belongs -3.56; to C8G C20U A46U G52C A91G, -4.53. In the case of C8G G48U G58C A75U U109C G113U, the “polymerase ribozyme fitness (log ratio)” value was -6.98. Next, C8G C98A C102A C115A: -3.34.

Turning to C8G A50C C79U A90U, the “polymerase ribozyme fitness (log ratio)” value is -1.96.

On to C8A U78C, for which the “polymerase ribozyme fitness (log ratio)” value was 0.0167. Next, C8A G58C U59C A105C U132A: -2.68. C8A U14C G93U: the “polymerase ribozyme fitness (log ratio)” value is -0.798. Next, C8G G48U G113A U126C: -0.687. To C8G G17U G48A G57U U112G C114U belongs -5.14.

For C8A U21C G58C C82A U106G U132A, the “polymerase ribozyme fitness (log ratio)” value is -1.35. For the variant C8G C13U C40G C124G, the “polymerase ribozyme fitness (log ratio)” value is 0.821.

As for C8G G93U, the “polymerase ribozyme fitness (log ratio)” value was -0.15.

With C8G A50C, the “polymerase ribozyme fitness (log ratio)” value came to 0.0345.

Regarding C8G C53A, the “polymerase ribozyme fitness (log ratio)” value came out at 0.628. Next, C8G A111U: -1.64; C8G G44C C70A A84C C115U: -5.29. Next, C8G C73G A91G: -1.87; C8G A43U: -0.695. To C8G C13A A91G U106G G117U belongs -3.24. Take C8G C115A: the “polymerase ribozyme fitness (log ratio)” value amounted to 0.863. Next, C8G C72A C102A: -1.22.

Consider C8G A16U A18U G58C C79A U109A, for which the “polymerase ribozyme fitness (log ratio)” value was -6.59. Next, C8G C102U: -1.57; C8A G61A: -0.475; C8G C88A A111C: 0.461. Next, C8G C15U C49A G93C: -1.27.

Take C8G C15U A46C C72U G93A G110A: the “polymerase ribozyme fitness (log ratio)” value was -2.41. C8G C11G G36U G71C U78G U132A: the “polymerase ribozyme fitness (log ratio)” value is -4.02. In the case of C8G C11U G63U C124A, the “polymerase ribozyme fitness (log ratio)” value came out at 1.09. As for C8G C15A G39A G52C U59A C89A G117A, the “polymerase ribozyme fitness (log ratio)” value is -2.57. Next, C8G C20U A84U G122U: -0.907. On to C8G C12G C56U U106G U112G A118C U133G, for which the “polymerase ribozyme fitness (log ratio)” value was -1.11. Next, C8G G57A U81A G120A: 0.685; C8G G44C C64U C76A C124G: -6.22. For C8G C82A C97A, the “polymerase ribozyme fitness (log ratio)” value was -4.13. Take C8G A16C U87A: the “polymerase ribozyme fitness (log ratio)” value was -0.437. Next, C8G C72U C89A A105U: -3.93; C8A U9G A26G G44A G45U G63U C115A: -3.15.

In the case of C8G C56G G63C U126C, the “polymerase ribozyme fitness (log ratio)” value was -3.33. Next, C8G C31A A50C G113U: -5.53.

The values are drawn from the RNAGym collection of RNA variant scans (doi:10.1073/pnas.2313332121).
